In one experiment the target is Nfluc416-WASP (human) (UniProt P42768). As to the kind of experiment: split reporter (BiFC, NanoBiT); bimolecular luminescence complementation (split firefly luciferase) in living HEK 293 cells, 24 h after transient cotransfection of the pair (50 ng/well) with pRL-tk; D-luciferin 150 ug/ml; IVIS CCD camera; ratio FL at 600 nm to RL at 500 nm; wild-type pairs also with co-expressed GEF or GAP catalytic domains.

A further experiment concerns the target Nfluc416-PKN (human) (UniProt Q16512). The description is as above.
A further experiment concerns the target Nfluc416-PAK (UniProt Q13153). As to the kind of experiment: split-luciferase complementation (BiLC) optical imaging in transiently cotransfected 293 cells. Particulars: parent: est. 4.6; read off a plot.

Consider 4 substances from publication PMC3627919.

Sequence of Nfluc416-WASP (human) (P42768 220-288): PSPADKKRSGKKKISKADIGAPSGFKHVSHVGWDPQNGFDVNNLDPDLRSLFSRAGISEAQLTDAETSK
Sequence of Nfluc416-PKN (human) (Q16512 13-112): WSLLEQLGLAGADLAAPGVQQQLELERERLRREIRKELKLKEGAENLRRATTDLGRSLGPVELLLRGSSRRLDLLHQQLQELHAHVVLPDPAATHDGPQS

On to “CDC42-Cfluc398 (CDC42 G12V) (from UniProt P60953 1-176; P60953 171-191) (natural protein)”, for which, in the experiment with Nfluc416-WASP (human), the reconstituted luminescence (FL/RL), fold over CDC42 F37A was 12.7 fold; the reconstituted luminescence (FL/RL), fold over CDC42 T17N came out at 6.8 fold; the reconstituted luminescence (FL/RL), fold over CDC42 WT worked out at 2.9 fold.

Turning to “Cfluc398-RhoA(G14V) (from UniProt P61586 1-193) (natural protein)”, the luminescence signal, fold of the active mutant over the wild type with Nfluc416-PKN (human) came out at 5.15 fold.

For “Cfluc398-RacI(WT) (from UniProt P63000) F37A”, in the experiment with Nfluc416-PAK, the response worked out at 1.4 FL/RL.

For “Cfluc398-RacI(WT) (from UniProt P63000) T17N”, the response with Nfluc416-PAK was 2.1 FL/RL.
